Results taken from patent US20210393776A1 (FABION PHARMACEUTICALS, published 2021).
Positions count from the first letter of the chain named. Like-named read-outs stand apart in the source and are kept apart here.

Legend:
[1] = biological target: T1, human CD3epsilonAA1-27.Fc (human); experiment: ELISA, immobilised antigen, biotinylated protein, streptavidin-HRP, ABTS, OD405
T1 construct: also called recombinant human CD3epsilon N-terminal peptide (aa1-27.Fc fusion); CD3epsilon N-terminal amino acid 1-27 peptide Fc fusion

[2] = biological target: T2, full length human EpCAM on CHO cells (human, UniProt P16422 24-314); experiment: flow cytometry on CHO cells stably expressing full length human EpCAM, PE detection
T2 construct: CHO cells stably expressing full length human EpCAM; also called hu-EpCAM-FL; human EpCAM-FL
T2 sequence: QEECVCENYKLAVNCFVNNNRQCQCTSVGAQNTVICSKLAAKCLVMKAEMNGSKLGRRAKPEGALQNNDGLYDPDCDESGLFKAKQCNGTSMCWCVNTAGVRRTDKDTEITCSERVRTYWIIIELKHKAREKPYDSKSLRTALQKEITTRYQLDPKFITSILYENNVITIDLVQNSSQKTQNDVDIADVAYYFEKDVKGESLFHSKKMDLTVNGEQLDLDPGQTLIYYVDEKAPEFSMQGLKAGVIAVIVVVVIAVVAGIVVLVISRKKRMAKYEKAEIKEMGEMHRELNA
Protocol: (§1) In general, cells were blocked in 1% BSA/PBS for 1 hr at 4 C and antibodies of interest were diluted into 1% BSA/PBS were added to blocked cells for incubation at 4° C. for 1 hr. after one wash with 1% BSA/PBS, staining procedures vary depending on the availability of antibodies or fluorescent antibody conjugate. In some case, direct fluorescence conjugates were used. In other cases, anti affinity tag antibodies (secondary antibody) were used to incubate with the cells followed by anti-species antibody conjugated with a particular fluorophore. In some other experiments, antibody (or other affinity reagent such as streptavidin) with fluorescence conjugate was used directly as secondary antibody (secondary reagent).

[3] = biological target: T3, recombinant cyno CD3epsilon/delta Fc(K-H) heterodimer (cynomolgus); experiment: ELISA, immobilised antigen, biotinylated protein, streptavidin-HRP, ABTS, OD405
T3 construct: also called cynomolgus CD3epsilon/delta; recombinant cyno CD3epsilon/delta heterodimeric Fc protein; copies: 1 + 1

[4] = biological target: T3, recombinant cyno CD3epsilon/delta …; experiment: as above; remark: listed apart in the source
[5] = biological target: T1, human CD3epsilonAA1-27.Fc; experiment: as above; remark: listed apart in the source
[6] = biological target: T2, full length human EpCAM on CHO cells; experiment: flow cytometry on CHO cells stably expressing full length human EpCAM, PE detection; remark: listed apart in the source
Protocol: as §1

[7] = biological target: T3, recombinant cyno CD3epsilon/delta …; experiment: ELISA, immobilised antigen, biotinylated protein, streptavidin-HRP, ABTS, OD405; remark: listed apart in the source
Protocol: (§2) MAXISORP® plates were used for ELISA binding assays. 50 μl of 1 μg/ml of antigens in 50 mM NaHCO₃were used to coat the plates at 4° C. overnight followed by incubation with 200 μl of 5% dry milk/TBS-0.05% TWEEN®-20 (i.e., polysorbate 20) (MTBS-T)/well. Antibodies were usually diluted in 5% MTBS-T and transferred to antigen coated plates and incubated for 1 hr with gentle shaking at room temperature. Bound antibodies were detected either by streptavidin-HRP (for detecting biotinylated antibodies) or anti-his tag-HRP conjugate (for his tagged antibodies). ABTS™ (i.e., 2,2′-azino-bis(3-ethylbenzothiazoline-6-sulphonic acid) solution in 50 mM citrate buffer was used for detection with OD405 measurement on using a microplate reader (Biotek).

[8] = biological target: T1, human CD3epsilonAA1-27.Fc; experiment: as above; remark: listed apart in the source
Protocol: as §2

[9] = biological target: T2, full length human EpCAM on CHO cells; experiment: flow cytometry on CHO cells stably expressing full length human EpCAM, PE detection; remark: listed apart in the source
Protocol: as §1

[10] = biological target: T3, recombinant cyno CD3epsilon/delta …; experiment: ELISA, immobilised antigen, biotinylated protein, streptavidin-HRP, ABTS, OD405; remark: listed apart in the source
[11] = biological target: T1, human CD3epsilonAA1-27.Fc; experiment: as above; remark: listed apart in the source
[12] = biological target: T2, full length human EpCAM on CHO cells; experiment: flow cytometry on CHO cells stably expressing full length human EpCAM, PE detection; remark: listed apart in the source
Protocol: as §1

B1: EpCAM1.1-(L)-hu-1F3.1 Fab (bispecific antibody)
heavy chain Fd (VH-CH1), unfused: EVQLVESGGGLVQPGGSLRLSCAASGFTFSTYAMNWVRQAPGKGLEWVSRIRSKYNNYATYYADSVKDRFTISRDDSKNTLYLQMNSLRAEDTAVYYCARHGNFGNSYVSWFAYWGQGTMVTVSSASTKGPSVFPLAPCSRSTSESTAALGCLVKDYFPEPVTVSWNSGALTSGVHTFPAVLQSSGLYSLSSVVTVPSSNFGTQTYTCNVDHKPSNTKVDKTVGGGGSHHHHHHH
light chain with anti-EpCAM scFv EpCAM1.1 at the N-terminus: QVQLQQSGGGLVQPGGSLRLSCAASGFTFSNYWMSWVRQAPGKGLEWVANIKQDGSEKFYVDSVKGRFTISRDNAKNSLYLQMNSLRAEDMAVYYCARVGGAWELGYWGQGTLVTVSAGGGGSGGGGSGGGGSGAQSVLTQPPSVSGAPGQRVTISCTGSSSNIGSYYGVHWYQQIPGTAPKLLIYSDTNRPSGVPDRFSGSKSGTSASLAITGLQAEDEADYYCQSYDSSLSGRVFGGGTKVTVLGRAQAVVTQEPSLTVSPGGTVTLTCRSSTGAVTTSNYANWVQQKPGQAPRGLIGGTNKRAPGTPARFSGSLLGGKAALTLSGVQPEDEAEYYCALWYSNLWVFGGGTKLTVLGQPKAAPSVTLFPPSSEELQANKATLVCLISDFYPGAVTVAWKADSSPVKAGVETTTPSKQSNNKYAASSYLSLTPEQWKSHRSYSCQVTHEGSTVEKTVAPTECS
notes: member of group m19; also called EpCAM1.1-(L)-hu-1F3 Fab
- binding result [1]: binds
- binding result [2]: binds
- binding result [3]: binds

B2: EpCAM1.1-(H+L)-hu-1F3.1 Fab (bispecific antibody)
heavy chain Fd with anti-EpCAM scFv EpCAM1.1 at the N-terminus: QVQLQQSGGGLVQPGGSLRLSCAASGFTFSNYWMSWVRQAPGKGLEWVANIKQDGSEKFYVDSVKGRFTISRDNAKNSLYLQMNSLRAEDMAVYYCARVGGAWELGYWGQGTLVTVSAGGGGSGGGGSGGGGSGAQSVLTQPPSVSGAPGQRVTISCTGSSSNIGSYYGVHWYQQIPGTAPKLLIYSDTNRPSGVPDRFSGSKSGTSASLAITGLQAEDEADYYCQSYDSSLSGRVFGGGTKVTVLGRAEVQLVESGGGLVQPGGSLRLSCAASGFTFSTYAMNWVRQAPGKGLEWVSRIRSKYNNYATYYADSVKDRFTISRDDSKNTLYLQMNSLRAEDTAVYYCARHGNFGNSYVSWFAYWGQGTMVTVSSASTKGPSVFPLAPCSRSTSESTAALGCLVKDYFPEPVTVSWNSGALTSGVHTFPAVLQSSGLYSLSSVVTVPSSNFGTQTYTCNVDHKPSNTKVDKTVGGGGSHHHHHHH
light chain with anti-EpCAM scFv EpCAM1.1 at the N-terminus: B1 light chain with anti-EpCAM scFv EpCAM1.1 at the N-terminus
notes: member of group m19; also called EpCAM1.1-(H+L)-hu-1F3 Fab
- binding result [1]: binds
- binding result [2]: binds
- binding result [3]: binds

B3: EpCAM1.2-(H+L)-hu-1F3.1 Fab (bispecific antibody)
heavy chain Fd with anti-EpCAM scFv EpCAM1.2 at the N-terminus: B2 heavy chain Fd with anti-EpCAM scFv EpCAM1.1 at the N-terminus with Q1E, Q5V, Q6E, I176L, V243M
light chain with anti-EpCAM scFv EpCAM1.2 at the N-terminus: B1 light chain with anti-EpCAM scFv EpCAM1.1 at the N-terminus with Q1E, Q5V, Q6E, I176L, V243L
notes: member of group m20; also called EpCAM1.2-(H+L)-hu-1F3 Fab
- binding result [4]: binds
- binding result [5]: binds
- binding result [6]: binds

B4: EpCAM2.2-(H+L)-hu-1F3.1 MSFP (bispecific antibody)
heavy: QVQLQESGPGLVKPSETLTLTCSVSGGSISGYYWSWIRQPPGMGLEWIGSVHHSGSTSYNPSLKSRVTISVDTSKNQFSLKLNSVTAADTAVYYCARYRGSGLDYWGQGTLVTVSSGGGGSGGGGSGGGGSQSVLTQPPSVSAAPGQKVTISCSGDSSNIGKNYVSWYQQLPGTAPKLLIYENNERPSGVPDRFSGSKSGTSATLGITGLQTGDEADYYCAAWDTSLSARVFGGGTKVTVLGRAEVQLVESGGGLVQPGGSLRLSCAASGFTFSTYAMNWVRQAPGKGLEWVSRIRSKYNNYATYYADSVKDRFTISRDDSKNTLYLQMNSLRAEDTAVYYCARHGNFGNSYVSWFAYWGQGTMVTVSSASTKGPSVFPLAPCSRSTSESTAALGCLVKDYFPEPVTVSWNSGALTSGVHTFPAVLQSSGLYSLSSVVTVPSSNFGTQTYTCNVDHKPSNTKVDKTVGGGGSHHHHHHH
light: QVQLQESGPGLVKPSETLTLTCSVSGGSISGYYWSWIRQPPGMGLEWIGSVHHSGSTSYNPSLKSRVTISVDTSKNQFSLKLNSVTAADTAVYYCARYRGSGLDYWGQGTLVTVSSGGGGSGGGGSGGGGSQSVLTQPPSVSAAPGQKVTISCSGDSSNIGKNYVSWYQQLPGTAPKLLIYENNERPSGVPDRFSGSKSGTSATLGITGLQTGDEADYYCAAWDTSLSARVFGGGTKVTVLGRAQAVVTQEPSLTVSPGGTVTLTCRSSTGAVTTSNYANWVQQKPGQAPRGLIGGTNKRAPGTPARFSGSLLGGKAALTLSGVQPEDEAEYYCALWYSNLWVFGGGTKLTVLGQPKAAPSVTLFPPSSEELQANKATLVCLISDFYPGAVTVAWKADSSPVKAGVETTTPSKQSNNKYAASSYLSLTPEQWKSHRSYSCQVTHEGSTVEKTVAPTECS
notes: (H + L) format has a GlyArgAla linker on both chains; His tag at the C-terminus of the Fd; also called double fusion of EpCAM2.2 scFv to both the HC and LC of hu-1F3.1 Fab
- EC50 (read off the curve) [7]: ~3 nM
- EC50 (read off the curve) [8]: ~3 nM

B5: EpCAM1.2-(H)-hu-1F3.1 Fab (bispecific antibody)
heavy chain Fd with anti-EpCAM scFv EpCAM1.2 at the N-terminus: B2 heavy chain Fd with anti-EpCAM scFv EpCAM1.1 at the N-terminus with Q1E, Q5V, Q6E, I176L, V243M
light chain, unfused: QAVVTQEPSLTVSPGGTVTLTCRSSTGAVTTSNYANWVQQKPGQAPRGLIGGTNKRAPGTPARFSGSLLGGKAALTLSGVQPEDEAEYYCALWYSNLWVFGGGTKLTVLGQPKAAPSVTLFPPSSEELQANKATLVCLISDFYPGAVTVAWKADSSPVKAGVETTTPSKQSNNKYAASSYLSLTPEQWKSHRSYSCQVTHEGSTVEKTVAPTECS
notes: member of group m20; also called EpCAM1.2-(H)-hu-1F3 Fab
- binding result [4]: binds
- binding result [5]: binds
- binding result [6]: binds

B6: EpCAM2.2-(H)-hu-1F3.1 Fab (bispecific antibody)
heavy chain Fd with anti-EpCAM scFv EpCAM2.2 at the N-terminus: B4 heavy
light chain, unfused: B5 light chain, unfused
notes: member of groups m21 and m31
- binding result [9]: binds
- EC50 (read off the curve) [7]: ~2 nM

B7: OKT3 Fab (Fab, V domains shown)
VH: not shown
VL: QIVLTQSPAIMSASPGEKVTMTCSASSSVSYMNWYQQKSGTSPKRWIYDTSKLASGVPAHFRGSGSGTSYSLTISGMEAEDAATYYCQQWSSNPFTFGSGTKLEINR
notes: Anti-CD3 Fab; biotinylated in the assays
- binding result [10]: no binding (tested: about 80 nM (last point; axis to 100 nM))
- binding result [11]: no binding (tested: about 80 nM (last point; axis to 100 nM))
- binding result [12]: no binding
